Source: US20180311371A1 (Hoffmann-La Roche, published 2018)

Columns and labels:
[1] = target: T1, human TPBG (trophoblast glycoprotein), full length, cell surface expressed (human, UniProt Q13641 32-420); experiment: cell-based or functional assay
T1 sequence: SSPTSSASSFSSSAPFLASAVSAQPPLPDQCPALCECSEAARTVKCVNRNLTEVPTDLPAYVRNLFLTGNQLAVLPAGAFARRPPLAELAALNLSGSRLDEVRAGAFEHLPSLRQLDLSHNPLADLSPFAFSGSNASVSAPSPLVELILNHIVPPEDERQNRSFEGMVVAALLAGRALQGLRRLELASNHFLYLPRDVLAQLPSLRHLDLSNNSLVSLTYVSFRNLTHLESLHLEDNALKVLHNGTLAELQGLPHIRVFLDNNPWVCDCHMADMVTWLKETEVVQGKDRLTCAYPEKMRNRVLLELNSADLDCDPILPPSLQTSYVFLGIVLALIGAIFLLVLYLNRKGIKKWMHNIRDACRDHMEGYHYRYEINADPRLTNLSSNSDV

[2] = target: T1, human TPBG (trophoblast glycoprotein), …

Binder | EC50 cytotoxicity, sortase-coupled Fab-PE, MCF7 [1] | EC50 [2] | X-fold higher potency compared to TPBG(H8)PE, MCF7 [1]
H8 Fab coupled to PE24 (LR8M) via sortase coupling (Fab, V domains shown) VH: EVQLQQSGPDLVKPGASVKISCKASGYSFTGYYMHWVKQSHGKSLEWIGRINPNNGVTLYNQKFKDKAILTVDKSSTTAYMELRSLTSEDSAVYYCARSTMITNYVMDYWGQVTSVTVSS VL: SIVMTQTPTFLLVSAGDRVTITCKASQSVSNDVAWYQQKPGQSPTLLISYTSSRYAGVPDRFIGSGYGTDFTFTISTLQAEDLAVYFCQQDYNSPPTFGGGTKLEIKR | 0.059 nM | 1.56 nM | 
051 Fab coupled to PE24 (LR8M) via sortase coupling (Fab) heavy: EVQLLESGGGLLQPGGSLRLSCAASGFTFSIYWMTWVRQAPGKGLEWVSAISGSGGSTYYADSVKGRFTISRDNSKNTLYLQMNSLRAEDTAVYYCAKDYYSNVYWGQGTLVTVSSASTKGPSVFPLAPSSKSTSGGTAALGCLVKDYFPEPVTVSWNSGALTSGVHTFPAVLQSSGLYSLSSVVTVPSSSLGTQTYICNVNHKPSNTKVDKKVEPKSCGGGSLPETGGGRHRQPRGWEQLYPTGAEFLGDGGAVSFSTRGTQNWTVERLLQAHRQLEEGGYVFVGYHGTFLEAAQSIVFGGVRARSQDLDAIWAGFYIAGDPALAYGYAQDQEPDAAGRIRNGALLRVYVPRSSLPGFYATSLTLAAPEAAGEVERLIGHPLPLRLDAITGPEESGGRLETILGWPLAERTVVIPSAIPTDPRNVGGDLDPSSIPDSEAAISALPDYASQPGKPPREDL light: DIQMTQSPSSVSASVGDRVTITCRASQGIYSWLAWYQQKPGKAPKLLIYAASSLQSGVPSRFSGSGSGTDFTLTISSLQPEDFATYYCQQSDSPPYTFGQGTKLEIKRTVAAPSVFIFPPSDEQLKSGTASVVCLLNNFYPREAKVQWKVDNALQSGNSQESVTEQDSKDSTYSLSSTLTLSKADYEKHKVYACEVTHQGLSSPVTKSFNRGEC | 0.036 nM | 0.67 nM | 1.7 fold
091 Fab coupled to PE24 (LR8M) via sortase coupling (Fab) heavy: EVHLLESGGGLVHPGGSLRLSCAASGFTFRSDAMHWVRQAPGKGLEWVSGVSGSGGSPYYADSVKGRFTISRDDSKTTLYLQMNSLRAEDTAVYYCATGGSIAGSYYYYPMDVWGQGTTVTVSSASTKGPSVFPLAPSSKSTSGGTAALGCLVKDYFPEPVTVSWNSGALTSGVHTFPAVLQSSGLYSLSSVVTVPSSSLGTQTYICNVNHKPSNTKVDKKVEPKSCGGGSLPETGGGRHRQPRGWEQLYPTGAEFLGDGGAVSFSTRGTQNWTVERLLQAHRQLEEGGYVFVGYHGTFLEAAQSIVFGGVRARSQDLDAIWAGFYIAGDPALAYGYAQDQEPDAAGRIRNGALLRVYVPRSSLPGFYATSLTLAAPEAAGEVERLIGHPLPLRLDAITGPEESGGRLETILGWPLAERTVVIPSAIPTDPRNVGGDLDPSSIPDSEAAISALPDYASQPGKPPREDL light: not shown | 0.033 nM | 0.61 nM | 1.8 fold
097 Fab coupled to PE24 (LR8M) via sortase coupling (Fab) heavy: EVQLLESGGGLAQPGGSLRLSCAASGFTFNNDAMTWVRQAPGKGLEWVSAISGSGGSTYYADSVKGRFTISRDNSKNTLYLQMNSLRAEDTAVYYCAKGGSWGDWYYYFYPMDVWGQGTTVTVSSASTKGPSVFPLAPSSKSTSGGTAALGCLVKDYFPEPVTVSWNSGALTSGVHTFPAVLQSSGLYSLSSVVTVPSSSLGTQTYICNVNHKPSNTKVDKKVEPKSCGGGSLPETGGGRHRQPRGWEQLYPTGAEFLGDGGAVSFSTRGTQNWTVERLLQAHRQLEEGGYVFVGYHGTFLEAAQSIVFGGVRARSQDLDAIWAGFYIAGDPALAYGYAQDQEPDAAGRIRNGALLRVYVPRSSLPGFYATSLTLAAPEAAGEVERLIGHPLPLRLDAITGPEESGGRLETILGWPLAERTVVIPSAIPTDPRNVGGDLDPSSIPDSEAAISALPDYASQPGKPPREDL light: not shown | 0.054 nM | 0.63 nM | 1.1 fold
